Reference: article PMC3900104

B1: Myc-tagged DISC1, in COS7 [human] / FLAG-tagged TRAK1 (trafficking-protein-Kinesin-binding-1), aa 2-953, in COS7 [human] (parent)
chain 1: MPGGGPQGAPAAAGGGGVSHRAGSRDCLPPAACFRRRRLARRPGYMRSSTGPGIGFLSPAVGTLFRFPGGVSGEESHHSESRARQCGLDSRGLLVRSPVSKSAAAPTVTSVRGTSAHFGIQLRGGTRLPDRLSWPCGPGSAGWQQEFAAMDSSETLDASWEAACSDGARRVRAAGSLPSAELSSNSCSPGCGPEVPPTPPGSHSAFTSSFSFIRLSLGSAGERGEAEGCPPSREAESHCQSPQEMGAKAASLDGPHEDPRCLSRPFSLLATRVSADLAQAARNSSRPERDMHSLPDMDPGSSSSLDPSLAGCGGDGSSGSGDAHSWDTLLRKWEPVLRDCLLRNRRQMEVISLRLKLQKLQEDAVENDDYDKAETLQQRLEDLEQEKISLHFQLPSRQPALSSFLGHLAAQVQAALRRGATQQASGDDTHTPLRMEPRLLEPTAQDSLHVSITRRDWLLQEKQQLQKEIEALQARMFVLEAKDQQLRREIEEQEQQLQWQGCDLTPLVGQLSLGQLQEVSKALQDTLASAGQIPFHAEPPETIRSLQERIKSLNLSLKEITTKVCMSEKFCSTLRKKVNDIETQLPALLEAKMHAISGNHFWTAKDLTEEIRSLTSEREGLEGLLSKLLVLSSRNVKKLGSVKEDYNRLRREVEHQETAYETSVKENTMKYMETLKNKLCSCKCPLLGKVWEADLEACRLLIQSLQLQEARGSLSVEDERQMDDLEGAAPPIPPRLHSEDKRKTPLKVLEEWKTHLIPSLHCAGGEQKEESYILSAELGEKCEDIGKKLLYLEDQLHTAIHSHDEDLIQSLRRELQMVKETLQAMILQLQPAKEAGEREAAASCMTAGVHEAQA
chain 2: ALVFQFGQPVRAQPLPGLCHGKLIRTNACDVCNSTDLPEVEIISLLEEQLPHYKLRADTIYGYDHDDWLHTPLISPDANIDLTTEQIEETLKYFLLCAERVGQMTKTYNDIDAVTRLLEEKERDLELAARIGQSLLKKNKTLTERNELLEEQVEHIREEVSQLRHELSMKDELLQFYTSAAEESEPESVCSTPLKRNESSSSVQNYFHLDSLQKKLKDLEEENVVLRSEASQLKTETITYEEKEQQLVNDCVKELRDANVQIASISEELAKKTEDAARQQEEITHLLSQIVDLQKKAKACAVENEELVQHLGAAKDAQRQLTAELRELEDKYAECMEMLHEAQEELKNLRNKTMPNTTSRRYHSLGLFPMDSLAAEIEGTMRKELQLEEAESPDITHQKRVFETVRNINQVVKQRSLTPSPMNIPGSNQSSAMNSLLSSCVSTPRSSFYGSDIGNVVLDNKTNSIILETEAADLGNDERSKKPGTPGTPGSHDLETALRRLSLRRENYLSERRFFEEEQERKLQELAEKGELRSGSLTPTESIMSLGTHSRFSEFTGFSGMSFSSRSYLPEKLQIVKPLEGSATLHHWQQLAQPHLGGILDPRPGVVTKGFRTLDVDLDEVYCLNDFEEDDTGDHISLPRLATSTPVQHPETSAHHPGKCMSQTNSTFTFTTCRILHPSDELTRVTPSLNSAPTPACGSTSHLKSTPVATPCTPRRLSLAESFTNTRESTTTMSTSLGLVWLLKERGISAAVYDPQSWDRAGRGSLLHSYTPKMAVIPSTPPNSPMQTPTSSPPSFEFKCTSPPYDNFLASKPASSILREVREKNVRSSESQTDVSVSNLNLVDKVRRFGVAKVVNSGRAHVPTLTEEQGPLLCGPPGPAPALVPRGLVPEGLPLRCPTVTSAIGGLQLNSGIRRNRSFPTMVGSSMQMKAPVTLTSGILMGAKLSKQTSLR

Variants of: B1
Experiment: co-immunoprecipitation (IP with Myc antibody, WB anti-FLAG), quantified
Conditions: with FLAG-tagged TRAK1 (trafficking-protein-Kinesin-binding-1), COS7 cells, n = 3 independent transfections, parent: 100, read off a plot

percent of parent	Variant
43 % of DISC1	chain 1 R35A R36A R37A R38A R41A R42A R47A
